# Results as given in publication PMC10439950 (2023).
# Where a chain is given by its changes, count along the chain named.
# B1: ATV^CD98hc.6.8:DNP (designed binder)
# chain: DKTHTCPPCPAPELLGGPSVFLFPPKPKDTLMISRTPEVTCVVVDVSHEDPEVKFNWYVDGVEVHNAKTKPREEQYNSTYRVVSVLTVLHQDWLNGKEYKCKVSNKALPAPIEKTISKAKGQPREPQVYTLPPSRDELTKNQVSLTCLVKGFYPSDIAVLWNSRFVLENNYKTTPPVLDSDGSFFLYSKLTVDKSRWQQGEIFACNVYHEALHNHYTFKNLALSPGK
# B2: TV6.6 as the ATV^CD98hc:DNP clone (designed binder)
# chain: B1 chain with E201N
# B3: extracellular domain of cynomolgus CD98hc (domain or fragment)
# chain: ELPAQKWWHTGALYRIGDLQAFQGHGSGNLAGLKGRLDYLSSLKVKGLVLGPLHKNQKDDVAQTDLLQIDPNFGSKEDFDNLLQSAKKKSIRVILDLTPNYRGENLWFSTQVDSVATKVKDALEFWLQAGVDGFQVRDIENLKDASSFLAEWENITKGFSEDRLLIAGTNSSDLQQIVSLLESNKDLLLTSSYLSDSSFTGEHTKSLVTQYLNATGNRWCSWSLSQAGLLTSFLPAQLLRLYQLMLFTLPGTPVFSYGDEIGLKAAALPGQPVEAPVMLWDESSFPDIPGAVSANMTVKGQSEDPGSLLSLFRQLSDQRSKERSLLHGDFHTFSSGPGLFSYIRHWDQNERFLVVLNFGDVGLSAGLQASDLPASASLPTKADLVLSTQPGREEGSPLELERLKLEPHEGLLLRFPYVA
# B4: extracellular domain of human CD98hc (domain or fragment)
# chain: RAPRCRELPAQKWWHTGALYRIGDLQAFQGHGAGNLAGLKGRLDYLSSLKVKGLVLGPIHKNQKDDVAQTDLLQIDPNFGSKEDFDSLLQSAKKKSIRVILDLTPNYRGENSWFSTQVDTVATKVKDALEFWLQAGVDGFQVRDIENLKDASSFLAEWQNITKGFSEDRLLIAGTNSSDLQQILSLLESNKDLLLTSSYLSDSGSTGEHTKSLVTQYLNATGNRWCSWSLSQARLLTSFLPAQLLRLYQLMLFTLPGTPVFSYGDEIGLDAAALPGQPMEAPVMLWDESSFPDIPGAVSANMTVKGQSEDPGSLLSLFRRLSDQRSKERSLLHGDFHAFSAGPGLFSYIRHWDQNERFLVVLNFGDVGLSAGLQASDLPASASLPAKADLLLSTQPGREEGSPLELERLKLEPHEGLLLRFPYAA
# Experiments:
# Assay in all cases: SPR
# [1] = target: B3
# TV6.d12 = target: TV6.d12
# TV6.d3 = target: TV6.d3
# TV6.38 = target: TV6.38
# ATV^CD98hc.6.39 = ATV^CD98hc.6.39 (human, UniProt P01857 = IgG part)
# TV6.d6 = target: TV6.d6
# ATV^CD98hc.6.29:DNP = ATV^CD98hc.6.29:DNP (human, UniProt P01857 = IgG part)
Kd [1],Kd (TV6.d12),Kd (TV6.d3),Kd (TV6.38),Kd (ATV^CD98hc.6.39),Kd (TV6.d6),Kd (ATV^CD98hc.6.29:DNP),Binder
890 nM,,,,,,,B1
2100 nM,,,,,,,B2
,6000 nM,2500 nM,250 nM,485 nM,5000 nM,,B3
,2100 nM,275 nM,43 nM,,550 nM,20 nM,B4
